Measurements as given in article PMC2791445, “A Novel Phase Variation Mechanism in the Meningococcus Driven by a Ligand-Responsive Repressor and Differential Spacing of Distal Promoter Elements” (PLoS Pathogens, 2009).

Target: the molecule itself
Assay: cross-linking; in vitro cross-linking of purified NadR, cross-linked species resolved on SDS-PAGE; data not shown

B1: NadR transcriptional regulator protein (NMB1843) of Neisseria meningitidis MC58, recombinant with an N-terminal histidine tag (natural protein)
chain: MPTQSKHASINIGLIQAREALMTQFRPILNQANITDQQWRIIRLLAENGTLDFQDLANQACILRPSLTGILTRLEKAGLVVRLKPSNDQRRVFLKLTAEGEKLYEEIGEEVDERYDAIEEVLGREKMLLLKDLLAELAKIEDALNS
notes: NadR (NMB1843), MarR family transcriptional regulator, N. meningitidis MC58; gene amplified from the MC58 genome with primers 1843-F (at the ATG) and 1843-R (past the stop codon), cloned as a 448 bp NdeI-BamHI fragment into pET15b; also called 1843 protein
stoichiometry N: 2
